One assay deals with T1, human FcγRIIIA V158 (human, UniProt P08637 17-254).
T1 construct: whole, on cells; also called huFcγRIIIA V158; human Fcγ receptor (CD16)
Briefly: competition flow cytometry on CHO DG-44 cells expressing human FcγRIIIA V158; competitor 50 nmol/L Alexa Fluor 488 labeled anti-CD70 IgG1. (In flow cytometry, cells or beads pass a laser one at a time.)

In another assay the target is T2, murine FcγRIV (murine, UniProt A0A0B4J1G0 21-249).
T2 construct: also called muFcγRIV; murine Fcγ receptor (CD16)
T2 sequence: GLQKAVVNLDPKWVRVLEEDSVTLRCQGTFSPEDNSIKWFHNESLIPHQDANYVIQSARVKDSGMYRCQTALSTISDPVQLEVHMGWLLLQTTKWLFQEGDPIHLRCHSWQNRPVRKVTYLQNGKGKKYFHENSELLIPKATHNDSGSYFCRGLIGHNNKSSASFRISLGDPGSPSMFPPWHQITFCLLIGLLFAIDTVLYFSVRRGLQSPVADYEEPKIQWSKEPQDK
Briefly: competition flow cytometry on CHO DG-44 cells expressing murine FcγRIV; competitor 200 nmol/L Alexa Fluor 488 labeled anti-CD70 IgG1.

T1 sequence (P08637 17-254 F176V): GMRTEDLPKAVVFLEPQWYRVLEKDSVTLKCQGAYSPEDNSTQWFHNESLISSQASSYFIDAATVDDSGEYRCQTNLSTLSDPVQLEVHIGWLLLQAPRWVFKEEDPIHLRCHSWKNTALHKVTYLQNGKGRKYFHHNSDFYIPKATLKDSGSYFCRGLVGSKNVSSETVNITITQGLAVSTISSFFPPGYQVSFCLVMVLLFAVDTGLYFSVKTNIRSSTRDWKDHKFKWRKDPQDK

B1: control h1F6 antibody (humanized IgG1 anti-CD70 monoclonal antibody, from CHO DG44 cells cultured without fucose analog; core fucosylated) (antibody)
chain 1: QVQLVQSGAEVKKPGASVKVSCKASGYTFTNYGMNWVRQAPGQGLKWMGWINTYTGEPTYADAFKGRVTMTRDTSISTAYMELSRLRSDDTAVYYCARDYGDYGMDYWGQGTTVTVSSASTKGPSVFPLAPCSRSTSESTAALGCLVKDYFPEPVTVSWNSGALTSGVHTFPAVLQSSGLYSLSSVVTVPSSNFGTQTYTCNVDHKPSNTKVDKTVERKCCVECPPCPAPPVAGPSVFLFPPKPKDTLMISRTPEVTCVVVDVSHEDPEVQFNWYVDGVEVHNAKTKPREEQFNSTFRVVSVLTVVHQDWLNGKEYKCKVSNKGLPAPIEKTISKTKGQPREPQVYTLPPSREEMTKNQVSLTCLVKGFYPSDIAVEWESNGQPENNYKTTPPMLDSDGSFFLYSKLTVDKSRWQQGNVFSCSVMHEALHNHYTQKSLSLSPGK
chain 2: DIVMTQSPDSLAVSLGERATINCRASKSVSTSGYSFMHWYQQKPGQPPKLLIYLASNLESGVPDRFSGSGSGTDFTLTISSLQAEDVAVYYCQHSREVPWTFGQGTKVEIKRTVAAPSVFIFPPSDEQLKSGTASVVCLLNNFYPREAKVQWKVDNALQSGNSQESVTEQDSKDSTYSLSSTLTLSKADYEKHKVYACEVTHQGLSSPVTKSFNRGEC
B1: the EC50 (usually the midpoint of the concentration-response curve) with human FcγRIIIA V158 is 113 nM; with murine FcγRIV it was 369 nM.

The record behind these values is patent US20190276796A1 (Seagen, published 2019).
